Assay results as given in the supplement of paper PMC9112550, “Optimization of the antimicrobial peptide Bac7 by deep mutational scanning” (BMC Biology, 2022).

Tested on: Escherichia coli TOP10
Assay: shrunken log2 fold change of peptide-encoding DNA abundance (4.5 h post-induction vs induction); higher = less antimicrobial activity (less host growth inhibition)
Settings: time post-induction: 4.5 h; library: site-saturation at positions 5, 18, 19, 20
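Further: peptides expressed intracellularly from a pBAD plasmid library in pooled LB shake-flask culture, induced with 0.3% L-arabinose, DNA abundance read by NGS, three biological replicates, DESeq2 with apeglm shrinkage.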

Row | Sequence | shrunken log2 fold change
1 | RRIRMRPPRLPRPRPRPCRDPRP | 0.244
2 | RRIRMRPPRLPRPRPRPCRIPRP | -0.0476
3 | RRIRMRPPRLPRPRPRPCRMPRP | -0.0205
4 | RRIRMRPPRLPRPRPRPCSDPRP | 0.0242
5 | RRIRMRPPRLPRPRPRPCSIPRP | -0.0306
6 | RRIRMRPPRLPRPRPRPCVGPRP | 0.584
7 | RRIRMRPPRLPRPRPRPCWHPRP | -0.0624
8 | RRIRMRPPRLPRPRPRPCWLPRP | -0.0281
9 | RRIRMRPPRLPRPRPRPCYIPRP | -0.133
10 | RRIRMRPPRLPRPRPRPDDPPRP | 1.6
11 | RRIRMRPPRLPRPRPRPDERPRP | 1.11
12 | RRIRMRPPRLPRPRPRPDFKPRP | -0.11
13 | RRIRMRPPRLPRPRPRPDFWPRP | 0.778
14 | RRIRMRPPRLPRPRPRPDHSPRP | 0.318
15 | RRIRMRPPRLPRPRPRPDHWPRP | 0.617
16 | RRIRMRPPRLPRPRPRPDIWPRP | 1.41
17 | RRIRMRPPRLPRPRPRPDKTPRP | 0.00408
18 | RRIRMRPPRLPRPRPRPDLSPRP | 1.58
19 | RRIRMRPPRLPRPRPRPDMCPRP | 1.86
20 | RRIRMRPPRLPRPRPRPDMFPRP | 2.25
21 | RRIRMRPPRLPRPRPRPDMSPRP | -0.00277
22 | RRIRMRPPRLPRPRPRPDMYPRP | -0.138

Row | Sequence | shrunken log2 fold change
23 | RRIRMRPPRLPRPRPRPDNRPRP | 0.00102
24 | RRIRMRPPRLPRPRPRPDPCPRP | 0.0496
25 | RRIRMRPPRLPRPRPRPDSEPRP | 1.82
26 | RRIRMRPPRLPRPRPRPDSLPRP | -0.0169
27 | RRIRMRPPRLPRPRPRPDTWPRP | 0.34
28 | RRIRMRPPRLPRPRPRPDVHPRP | 0.109
29 | RRIRMRPPRLPRPRPRPDVWPRP | 1.19
30 | RRIRMRPPRLPRPRPRPDWTPRP | 0.0113
31 | RRIRMRPPRLPRPRPRPDYAPRP | 0.263
32 | RRIRMRPPRLPRPRPRPEDWPRP | 3.63
33 | RRIRMRPPRLPRPRPRPEEAPRP | 3.94
34 | RRIRMRPPRLPRPRPRPEEYPRP | 0.0514
35 | RRIRMRPPRLPRPRPRPEFMPRP | 0.656
36 | RRIRMRPPRLPRPRPRPEGRPRP | 3.21
37 | RRIRMRPPRLPRPRPRPEHDPRP | 1.62
38 | RRIRMRPPRLPRPRPRPEHIPRP | -0.0225
39 | RRIRMRPPRLPRPRPRPEINPRP | 2.85
40 | RRIRMRPPRLPRPRPRPEKIPRP | 0.856
41 | RRIRMRPPRLPRPRPRPEKWPRP | 1.56
42 | RRIRMRPPRLPRPRPRPELDPRP | 2.77
43 | RRIRMRPPRLPRPRPRPELNPRP | 0.0722
44 | RRIRMRPPRLPRPRPRPELYPRP | 0.0658

Row | Sequence | shrunken log2 fold change
45 | RRIRMRPPRLPRPRPRPEMYPRP | 0.216
46 | RRIRMRPPRLPRPRPRPENLPRP | -0.00111
47 | RRIRMRPPRLPRPRPRPEPAPRP | 3.51
48 | RRIRMRPPRLPRPRPRPEQGPRP | 0.493
49 | RRIRMRPPRLPRPRPRPEQIPRP | 0.527
50 | RRIRMRPPRLPRPRPRPESDPRP | 3.34
51 | RRIRMRPPRLPRPRPRPEVVPRP | 2.97
52 | RRIRMRPPRLPRPRPRPEWAPRP | 1.36
53 | RRIRMRPPRLPRPRPRPEWEPRP | -0.00306
54 | RRIRMRPPRLPRPRPRPEYTPRP | -0.0269
55 | RRIRMRPPRLPRPRPRPFAKPRP | 0.3
56 | RRIRMRPPRLPRPRPRPFAYPRP | -0.157
57 | RRIRMRPPRLPRPRPRPFCQPRP | 0.0975
58 | RRIRMRPPRLPRPRPRPFDQPRP | 0.00237
59 | RRIRMRPPRLPRPRPRPFEDPRP | 0.2
60 | RRIRMRPPRLPRPRPRPFHDPRP | -0.14
61 | RRIRMRPPRLPRPRPRPFIGPRP | -0.0122
62 | RRIRMRPPRLPRPRPRPFILPRP | -0.41
63 | RRIRMRPPRLPRPRPRPFIQPRP | 0.0137
64 | RRIRMRPPRLPRPRPRPFIRPRP | -0.47
65 | RRIRMRPPRLPRPRPRPFKPPRP | -0.119
66 | RRIRMRPPRLPRPRPRPFLFPRP | 0.0343

Row | Sequence | shrunken log2 fold change
67 | RRIRMRPPRLPRPRPRPFMNPRP | -0.196
68 | RRIRMRPPRLPRPRPRPFMWPRP | -0.128
69 | RRIRMRPPRLPRPRPRPFMYPRP | -0.219
70 | RRIRMRPPRLPRPRPRPFNPPRP | -1.51
71 | RRIRMRPPRLPRPRPRPFNQPRP | -0.0903
72 | RRIRMRPPRLPRPRPRPFNTPRP | -0.0396
73 | RRIRMRPPRLPRPRPRPFPLPRP | -0.0414
74 | RRIRMRPPRLPRPRPRPFSWPRP | 0.0956
75 | RRIRMRPPRLPRPRPRPFTRPRP | -0.0636
76 | RRIRMRPPRLPRPRPRPFVGPRP | 0.0187
77 | RRIRMRPPRLPRPRPRPFVLPRP | -0.691
78 | RRIRMRPPRLPRPRPRPFYYPRP | -0.527
79 | RRIRMRPPRLPRPRPRPGADPRP | 2.39
80 | RRIRMRPPRLPRPRPRPGCCPRP | 1.36
81 | RRIRMRPPRLPRPRPRPGCQPRP | 0.719
82 | RRIRMRPPRLPRPRPRPGDNPRP | -0.00193
83 | RRIRMRPPRLPRPRPRPGELPRP | -0.0122
84 | RRIRMRPPRLPRPRPRPGEPPRP | 0.163
85 | RRIRMRPPRLPRPRPRPGGHPRP | 0.516
86 | RRIRMRPPRLPRPRPRPGIGPRP | 0.638
87 | RRIRMRPPRLPRPRPRPGLWPRP | 1.1
88 | RRIRMRPPRLPRPRPRPGMWPRP | 0.292

Row | Sequence | shrunken log2 fold change
89 | RRIRMRPPRLPRPRPRPGNAPRP | 0.573
90 | RRIRMRPPRLPRPRPRPGNLPRP | 0.0466
91 | RRIRMRPPRLPRPRPRPGNNPRP | -0.0591
92 | RRIRMRPPRLPRPRPRPGPAPRP | 1.71
93 | RRIRMRPPRLPRPRPRPGRVPRP | 0.919
94 | RRIRMRPPRLPRPRPRPGSDPRP | 1.4
95 | RRIRMRPPRLPRPRPRPGTNPRP | 1.55
96 | RRIRMRPPRLPRPRPRPGVFPRP | 0.858
97 | RRIRMRPPRLPRPRPRPGYDPRP | 0.0865
98 | RRIRMRPPRLPRPRPRPGYYPRP | -0.0156
99 | RRIRMRPPRLPRPRPRPHCEPRP | -0.0828
100 | RRIRMRPPRLPRPRPRPHDLPRP | -0.0136
101 | RRIRMRPPRLPRPRPRPHDYPRP | 1.54
102 | RRIRMRPPRLPRPRPRPHETPRP | -0.00213
103 | RRIRMRPPRLPRPRPRPHEWPRP | 0.624
104 | RRIRMRPPRLPRPRPRPHGMPRP | -0.0062
105 | RRIRMRPPRLPRPRPRPHGPPRP | 0.752
106 | RRIRMRPPRLPRPRPRPHHWPRP | 0.439
107 | RRIRMRPPRLPRPRPRPHITPRP | -0.374
108 | RRIRMRPPRLPRPRPRPHIVPRP | 0.0532
109 | RRIRMRPPRLPRPRPRPHKRPRP | 0.126
